Experimental findings from paper doi:10.1101/2022.09.01.506260 are described below.

Assay [1] deals with PEAK2^IDR1 (N-terminally truncated PEAK2, residues 802-1406) (human) (UniProt Q86YV5). The experiment in a line: SEC-MALS.
The target in assay [2] is PEAK3^tandem-pS69 phosphopeptide (residues 54-74) (human). The experiment in a line: ITC.
For assay [3], the target named is PEAK3^tandem-pS69 peptide pre-complexed with 14-3-3ɣ (human). The experiment in a line: ITC.
Assay [4] has as its target full length recombinant PEAK3 (PEAK3^FL) from insect cells (human) (UniProt Q6ZS72). The experiment in a line: SEC-MALS.

Chain of CrkII NSH3 domain (CrkII^NSH3) (P46108 134-191): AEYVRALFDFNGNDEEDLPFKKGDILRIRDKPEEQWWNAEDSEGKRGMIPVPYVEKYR
Chain of full length recombinant PEAK3 (PEAK3^FL) from insect cells (human) (Q6ZS72 whole entry): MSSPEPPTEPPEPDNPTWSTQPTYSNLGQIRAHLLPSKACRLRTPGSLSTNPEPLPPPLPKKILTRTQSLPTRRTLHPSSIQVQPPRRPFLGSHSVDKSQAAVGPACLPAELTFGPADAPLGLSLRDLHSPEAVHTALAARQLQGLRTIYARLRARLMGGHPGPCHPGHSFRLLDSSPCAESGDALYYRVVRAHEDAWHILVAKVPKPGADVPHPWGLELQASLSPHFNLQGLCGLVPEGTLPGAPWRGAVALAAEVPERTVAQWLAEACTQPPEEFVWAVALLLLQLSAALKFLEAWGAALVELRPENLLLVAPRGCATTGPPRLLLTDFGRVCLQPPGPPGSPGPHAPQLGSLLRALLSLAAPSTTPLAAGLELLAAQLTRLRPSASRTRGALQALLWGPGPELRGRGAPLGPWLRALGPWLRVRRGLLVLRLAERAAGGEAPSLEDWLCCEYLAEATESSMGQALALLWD
Chain of PEAK2^IDR1 (N-terminally truncated PEAK2, residues 802-1406) (human) (Q86YV5 802-1406): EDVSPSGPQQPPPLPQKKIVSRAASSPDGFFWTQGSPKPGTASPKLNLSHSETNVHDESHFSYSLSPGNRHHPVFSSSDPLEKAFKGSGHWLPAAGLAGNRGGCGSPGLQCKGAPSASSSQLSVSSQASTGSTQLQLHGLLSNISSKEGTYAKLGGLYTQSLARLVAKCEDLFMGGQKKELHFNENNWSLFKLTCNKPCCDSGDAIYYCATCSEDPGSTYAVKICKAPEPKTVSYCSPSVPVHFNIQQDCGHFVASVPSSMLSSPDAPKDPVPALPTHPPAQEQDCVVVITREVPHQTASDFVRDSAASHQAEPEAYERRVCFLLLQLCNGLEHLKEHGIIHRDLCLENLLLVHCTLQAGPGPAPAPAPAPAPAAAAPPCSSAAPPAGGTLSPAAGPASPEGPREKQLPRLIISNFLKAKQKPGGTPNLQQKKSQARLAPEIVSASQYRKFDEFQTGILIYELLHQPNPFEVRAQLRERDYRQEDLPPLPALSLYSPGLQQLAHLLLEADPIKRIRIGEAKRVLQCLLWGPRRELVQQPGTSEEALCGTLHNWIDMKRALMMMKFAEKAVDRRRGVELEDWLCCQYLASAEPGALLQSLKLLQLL

As for “full length CrkII, dimer (CrkII^FL dimer) (from UniProt P46108-1 1-304) (natural protein)”, the stoichiometry N in assay [1] was 1 ratio (2:2).

human 14-3-3γ (natural protein) displayed a dissociation constant (Kd) in assay [2] of 0.13 µM. In turn, “CrkII NSH3 domain (CrkII^NSH3) (from UniProt P46108-1 134-191) (domain or fragment)” returned a Kd in assay [3] of 3.6 µM.

“insect cell derived 14-3-3ε,ζ heterodimer (complex)”: in assay [4], the stoichiometry N (ratio (dimer:dimer)) amounted to 1.
